From a protein production outcome set (Wang et al. 2014)

Test: label from the status in PepcDB records
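Also: failed if final PepcDB status was selected cloned or expressed and not failed if soluble or beyond.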

| Sequence | protein production |
| --- | --- |
| MAQRKNAKSSGNSSSSGSGSGSTSAGSSSPGARRETKHGGHKNGRKGGLSGTSFFTWFMVIALLGVWTSVAVVWFDLVDYEEVLGKLGIYDADGDGDFDVDDAKVLLGLKERSTSEPAVPPEEAEPHTEPEEQVPVEAEPQNIEDEAKEQIQSLLHEMVHAEHVEGEDLQQEDGPTGEPQQEDDEFLMATDVDDRFETLEPEVSHEETEHSYHVEETVSQDCNQDMEEMMSEQENPDSSEPVVEDERLHHDTDDVTYQVYEEQAVYEPLENEGIEITEVTAPPEDNPVEDSQVIVEEVSIFPVEEQQEVPPETNRKTDDPEQKAKVKKKKPKLLNKFDKTIKAELDAAEKLRKRGKIEEAVNAFKELVRKYPQSPRARYGKAQCEDDLAEKRRSNEVLRGAIETYQEVASLPDVPADLLKLSLKRRSDRQQFLGHMRGSLLTLQRLVQLFPNDTSLKNDLGVGYLLIGDNDNAKKVYEEVLSVTPNDGFAKVHYGFILKAQNKIAESIPYLKEGIESGDPGTDDGRFYFHLGDAMQRVGNKEAYKWYELGHKRGHFASVWQRSLYNVNGLKAQPWWTPKETGYTELVKSLERNWKLIRDEGLAVMDKAKGLFLPEDENLREKGDWSQFTLWQQGRRNENACKGAPKTCTLLEKFPETTGCRRGQIKYSIMHPGTHVWPHTGPTNCRLRMHLGLVIPKEGCKIRCANETRTWEEGKVLIFDDSFEHEVWQDASSFRLIFIVDVWHPELTPQQRRSLPAI | failed |
| MERKINRREKEKEYEGKHNSLEDTDQGKNCKSTLMTLNVGGYLYITQKQTLTKYPDTFLEGIVNGKILCPFDADGHYFIDRDGLLFRHVLNFLRNGELLLPEGFRENQLLAQEAEFFQLKGLAEEVKSRWEKEQLTPRETTFLEITDNHDRSQGLRIFCNAPDFISKIKSRIVLVSKSRLDGFPEEFSISSNIIQFKYFIKSENGTRLVLKEDNTFVCTLETLKFEAIMMALKCGFRLLTSLDCSKGSIVHSDALHFIK | failed |
| MKAIMRRLIMTNFFNTPLFGLTLSVLAYTLGLSLYRRFPNPLTTPLLVSTALIIVILHYTGICYRDYYVGGSYLNSLIIPSTVALAVPFYKNLHLMRHHCKSILIGSTVACILNTTYTALIAKLFGMDYFLAISLFPKSVTTAMAVGISEKMQGITTVTLVVVVITGILTSVLGPVFLKMIGIKDPVAIGLSLGGTGHAVGTGTAFRYGQVAGAMGGLSIAVTGILYVFISPIVASLILR | failed |
| MIRMTVKVPHPLRVVAVSGGMQRPSKSVALAEHLLALIAEQLPCERHLVEIGALAPQFAGAPWRSHLPGSVEQALALVEQADVLVVATPVYRGSFTGLFKHFFDFIDQDALVDTPVLLAATGGSDRHALMIDHQLRPLFSFFQARTLPLGVYATDRDFLDYRVHSQALAERASLAVQRALPLIELTRHARSITAQNVAAA | failed |
| MIMMENDRISDFFIVAFIFSWVLWIPVAMVSAGFSFPQPLQAFLESPYNPAAFGPTLAAVLLSYRYGGRDELLALLRKGVNYDFHRIWWPVILLFFPVLTAVALYLGVLWGDPQPYLYWTSQPLMVIMVFIYIFFLGGPLQEEFGWRGYALPRLQRRYSPIYAALIIGFIWGLWHIPLFFIGGSIQSQVPFWSFMILIISASVIYTWVYNSTGSILATMIIHTTGNLSYFLFPVQGTLAGGIFLMILNVAAALAVMLFAGSELKTDFGGQGH | failed |
| MEFCPKCKSLMIYQGDKLVCRKCGYEKEADDSEELVIKVERNKEDVPVIEGENLKTLPTTKAICPACGHNEAFWWLRQLRAADESEVRFFRCTKCGKTWREYD | failed |
| ELLKSGKAKDRFEGEENAPVTIVEYASLTCVHCAHFYNDVLPQIRKKYIKTGKVKLIFRDFAFDSRATAGFMLARCAPEDRYFPLIEVLFQKQSEWVWARDAVTPLKKIGLMAGFTDESFNACLKNQSILDEVNASFERGKELGVNATPTFFINGNKYEGAMSVEAFFSVIDSFLKN | not failed |
| MCPEFQRKAAGAPRMGAMLARCVLTAALALQAAAAARAVEIEIGVASRGVVDGLEFVQFSADERTMATTHWGNVVHLWDLKTLRVRSSVSVANRDFDFDLSPDGRALAVWNEEGKGEIELYDTDNGQPARALPAPRLPQGESRRGRSLVYRDDGTLEFVSHGWIGGHARKAYLLAVPAGQPRAAETPLPALVNSVAFRKSAVMDQGRLLLAGVDGADDELAIMDIASGRMLAREPGFRIASYAADARRAVFVEADGKQRILAFDFSSRSLSTLPRWTGSGKFQPYRFVAGTRFLVLAPDEPDASTRRAAPGIYDLQTRRLHRLPPDADPGSIDVWGATASYVLCNPDHTACQAEVADLAISRKLGTFAVQPSADFRTWISPSGSMVVVGGADDGTMMVWSVKEQRVIGPN | failed |
| MYLKARQDELTESTIQSQEYRLEAFEQFCREEGIENLNDLSGRDLYAYRVWRREGNGKGRDEIEPITLRGQLATVRSFLRFAAEVDAVPEDLRTKVPLPTISNAGEVSASTLDPERADVILDYLQMYKYASRVHVIALLLWHTGARMGAIRGLDIDDCELEQDNPGIQFVHRPQTDTPLKNGEKGQRWNAISDHVANVLQDYIDGPREPVFDEHGRRPLVTTPQGRASTSTFRTTMYRVTRPCWRGAECPHDRDPEECEATSNRKASTCPSARSPHDVRSGRVTAYRREDVPRRVVSDRLNASDQILDKHYDRRGEREKSEQRRDYLPEV | failed |
| MELELDDDVFFADISKQLNLLITDEDEQNPISLSSSVSFQGLFRGNYQTSATPYMMYNEQINYNVIRESKGTGVFIPRSSQPRRKHNHHPHQKKQGRFIGSFIPKQQFPHHGHDNNLTTLNNNNQESITFHHASTNPRRTYRDAASLFT | failed |
| MTEPANNHPSPPPQNWLFKWWNSLNAITRLLVLVLGAPLMVLNARALSSIFGYFESLFVISLIASVIAFLLNYPVAWLEKQGAKRFVAASFVFLTALIIFTALGVTLIPLALSQAQQLVARLPDWLDSGQKQLVLLDQKAEILGWPVNFDGLIPQINSRLAAELQNLAGSTLNLALSLTVFTVVRLLDVLLTIILTFYLLLHTDDVWQSIIGWLPERFQKPFSDTLRRSFQNYFLGQLVSATCMALGLISGFLLLKVPFGLLFGLTVGVMALIPFGGSVGIVLVTFLVALRDIGMALQLLAVALVIQQIVENGIAPRVLGSVTGLNPFWVLISLLTGARIGGLLGVIVAVPSAVMIKEALGAIRSMKPLVPAPDHNQDPLYFKNQEEVQPLPPRP | failed |
| MNNLKKYTLVAVFVFLTAVCFQHPGITSAATTITIDPDATYQTIEGWGASICWWGNQIGRWSPDNRNRLIEKIVSPTDGLGYNIFRYNIGGGDNPGHNHMRDYADIQGYQNADRSWNWNADAAQRAVLTRLIERGRYYGSEIILEAFSNSPPYWMTKSGCASGTSDGSNNLRDDCYDDFADYLTEVVKHFRDAWGITFRTLEPMNEPNSDWWKAGGRQEGCSFSYANQQRIIKEVGEKLKAKGLTGTTVSAADEASIDTALEGLQSYDATTLSYMSQLNVHSYFGSKRAQLRDLAKSKGLRIWQSESGPLSFNGDMADSCIMLSKRIVTDLKELQCVAWLDWQIIDGGNWGSIYVDDASQTFTLTEKFYMHANYSRFIRPGYTIIGANNEKTIAAISPDKKKLVIVATNDNKSSSANYTFNLTRFSGVNSTVEVYRTSPSLSLAKSIITASNKIVSDTLPPYSINTYVITLDGGVESVPAVGLQSYNYPNRYVRHADFDARIDENVTPLEDSQWRLVPGLANSSEGYVSIQSVNYPGYYLRHWDYDFRLDKNDGTTIFAEDATFKLVPGLADPSCVSFQSYNYPDRYIRHYGYLLKLERISTDLDRQDATFLIISDDSPGPITDSGYIMAYFKQAPGEYGLNLCYSTDGLHWRNINDGKPVLYAQMGTKGIRDPYIFRKQDGKFGIVATDMLGTNWGDTSQYIHYWESEDLINFTERLIKVHNKSNMHAWAPEVFYDENRKQYGIYWAGNTDYNRIYVNYTTDFDTVSDCQVFFDPGYDVIDAHIVSDKGMYYLFFKDERASGKAIKVARSSSLTPNSFTVFTPNFITSPNTEGPFVFKDNNSDSWYMYVDIYSNNGIFECWKTNDLNALSWTKVTGISVPPGVRHGSVVKVNRWELETAISRKVVTPPAPTPPPVLKGDVNADGVINSSDIMVLKRFLLRTITLTEEMLLNADTNGDGAVNSSDFTLLKRYILRSIDSFPV | failed |
| TRRIMQLVFTDVTKHKEYEETLRKEQQVVQDILDFQSSIVLVAGSDEGVLSANRSALDFFGFRDVKEFRMHYRCICEAFIDREGFLKNRHEAWLHEALLANQTGRDSKAIIKDRHSGEERIFVVKVGRYPRDSHKFIVSLTD | failed |
| MQVEQRTLNTAAHPFQITAYWLDQISDFETAVDYPIMIICPGGGFTYHSGREEAPIATRMMAAGMHTVVLNYQLIVGDQSVYPWALQQLGATIDWITTQASAHHVDCQRIILAGFSAGGHVVATYNGVATQPELRTRYHLDHYQGQHAAIILGYPVIDLTAGFPTTSAARNQITTDARLWAAQRLVTPASKPAFVWQTATDESVPPINSLKYVQAMLQHQVATAYHLFGSGIHGLALANHVTQKPGKDKYLNDQAAIWPQLALRWLQEQGLLAGNYLEHHHHHH | not failed |
| PSMPASPVLTKAGITWLSLQWSKPSGTPSDEGISYILEMEEETSGYGFKPKYDGEDLAYTVKNLRRSTKYKFKVIAYNSEGKSNPSEVVEFTTCPD | not failed |
| MNQQEVAADYLKYFDDMLAKAADLTKDIKDADKKTVVYGNVSKFSQPHVIAEWWIDKAGGISVTSEAMTKANKESLTYTLEDLLKWNPDVMFVASAAEKKEVLADARLGEITAVKNGAIYIVPRIAHVWGNRTTEQPLTIMWAMNKLYPEIVTLEHHHHHH | not failed |
| MGILDEIMNQEHFDIKTSLDYINEYEKLLPFDSEIHTARAVTYFFGEEYKLAEEHIRKALKFRPNNYDNNFYLANILIAMGEYPDAIKSAVLSVTFLKHFAKIQGYDYINDKLFYYNEQVKTLIEYCIENIKDTNVLEDLKRFFGFIELSIAKFPVCFYGDKWNILVGEYLNKDLNSEYNDYICFYSDTYNNMLSDFQKKLYTVINNSEISSICPIESFKSMTAKEFSLDNGKYIIPIATTEYNQVIDFKIKNTNFKSQQVDPPGFFKYYRVNNGISLNSDKDVIIGKPIKLGFKEKNKKLVFTIFIDALSQKYLLETKYKSMPYTKAFFDKGIIFENCYSAGEWTYPSLTSVVTGLYTTNHHFLHSSAGYKYPDDIDLFSEIMKKNEYFTANISGTYALAPYSSGFRGFDRTVFKNSLGFSDSVIINDAIKHIESFKETNQFVFMSLSDVHKILDDIENYSVNYDIVNQTSLDIETSLSKRSSFVSAWQKYDEEAIKKYDVALRELDRQLKGIYDYILQNYSEEEYLISIFSDHGASFLGKDDFLLKSNITNSVLMVRGSGSASNGNTEYISNMDLIPIILKLANIEHDLSKYDCVLPKTLGGKGREFTYSESIYPGQTYKAMVNNDKYCYILETKGITDIDGTINFDEYSDSVFDKKEDKEVKDNDILEYYREIVYNHIKRNIKY | failed |
| MSHVELQPGFDFQQAGKEVLAIERECLAELDQYINQNFTLACEKMFWCKGKVVVMGMGKSGHIGRKMAATFASTGTPSFFVHPGEAAHGDLGMVTPQDVVIAISNSGESSEITALIPVLKRLHVPLICITGRPESSMARAADVHLCVKVAKEACPLGLAPTSSTTATLVMGDALAVALLKARGFTAEDFALSHPGGALGRKLLLRVNDIMHTGDEIPHVKKTASLRDALLEVTRKNLGMTVICDDNMMIEGIFTDGDLRRVFDMGVDVRQLSIADVMTPGGIRVRPGILAVEALNLMQSRHITSVMVADGDHLLGVLHMHDLLRAGVV | failed |
| MSEKPLISVLMPNYNSEKYLNEAIESILNQTYENFEFIILDDCSTDNSWKIIQEYAKKDKRINIFRNEKNLGRPKTYNRLLNMISNESFFFFFMGSDDVVKENMINIKLNYFNNFEEIDGIGNSIEYVDENLNFIKKREYPLTDRDIRKNFLIFNPISQGGMCLKSNLKNETFNEKYKVCLDYEIWTRLIDKGYTFENLKESLYLYRQQREQAKQKNLKMTLVNTVKIKSKYLFRPQYFSINAFLRFNLEILLLMLPKKLILWVFYKSL | failed |
